Target: Clostridium difficile toxin A (TcdA) (Clostridium difficile), P16154
Experiment: SPR (Biacore 3000), VHH over immobilized TcdA, 1:1 fit
Conditions: remark: other sources report otherwise

Sequence of Clostridium difficile toxin A (TcdA) (Clostridium difficile), P16154 (P16154 whole entry): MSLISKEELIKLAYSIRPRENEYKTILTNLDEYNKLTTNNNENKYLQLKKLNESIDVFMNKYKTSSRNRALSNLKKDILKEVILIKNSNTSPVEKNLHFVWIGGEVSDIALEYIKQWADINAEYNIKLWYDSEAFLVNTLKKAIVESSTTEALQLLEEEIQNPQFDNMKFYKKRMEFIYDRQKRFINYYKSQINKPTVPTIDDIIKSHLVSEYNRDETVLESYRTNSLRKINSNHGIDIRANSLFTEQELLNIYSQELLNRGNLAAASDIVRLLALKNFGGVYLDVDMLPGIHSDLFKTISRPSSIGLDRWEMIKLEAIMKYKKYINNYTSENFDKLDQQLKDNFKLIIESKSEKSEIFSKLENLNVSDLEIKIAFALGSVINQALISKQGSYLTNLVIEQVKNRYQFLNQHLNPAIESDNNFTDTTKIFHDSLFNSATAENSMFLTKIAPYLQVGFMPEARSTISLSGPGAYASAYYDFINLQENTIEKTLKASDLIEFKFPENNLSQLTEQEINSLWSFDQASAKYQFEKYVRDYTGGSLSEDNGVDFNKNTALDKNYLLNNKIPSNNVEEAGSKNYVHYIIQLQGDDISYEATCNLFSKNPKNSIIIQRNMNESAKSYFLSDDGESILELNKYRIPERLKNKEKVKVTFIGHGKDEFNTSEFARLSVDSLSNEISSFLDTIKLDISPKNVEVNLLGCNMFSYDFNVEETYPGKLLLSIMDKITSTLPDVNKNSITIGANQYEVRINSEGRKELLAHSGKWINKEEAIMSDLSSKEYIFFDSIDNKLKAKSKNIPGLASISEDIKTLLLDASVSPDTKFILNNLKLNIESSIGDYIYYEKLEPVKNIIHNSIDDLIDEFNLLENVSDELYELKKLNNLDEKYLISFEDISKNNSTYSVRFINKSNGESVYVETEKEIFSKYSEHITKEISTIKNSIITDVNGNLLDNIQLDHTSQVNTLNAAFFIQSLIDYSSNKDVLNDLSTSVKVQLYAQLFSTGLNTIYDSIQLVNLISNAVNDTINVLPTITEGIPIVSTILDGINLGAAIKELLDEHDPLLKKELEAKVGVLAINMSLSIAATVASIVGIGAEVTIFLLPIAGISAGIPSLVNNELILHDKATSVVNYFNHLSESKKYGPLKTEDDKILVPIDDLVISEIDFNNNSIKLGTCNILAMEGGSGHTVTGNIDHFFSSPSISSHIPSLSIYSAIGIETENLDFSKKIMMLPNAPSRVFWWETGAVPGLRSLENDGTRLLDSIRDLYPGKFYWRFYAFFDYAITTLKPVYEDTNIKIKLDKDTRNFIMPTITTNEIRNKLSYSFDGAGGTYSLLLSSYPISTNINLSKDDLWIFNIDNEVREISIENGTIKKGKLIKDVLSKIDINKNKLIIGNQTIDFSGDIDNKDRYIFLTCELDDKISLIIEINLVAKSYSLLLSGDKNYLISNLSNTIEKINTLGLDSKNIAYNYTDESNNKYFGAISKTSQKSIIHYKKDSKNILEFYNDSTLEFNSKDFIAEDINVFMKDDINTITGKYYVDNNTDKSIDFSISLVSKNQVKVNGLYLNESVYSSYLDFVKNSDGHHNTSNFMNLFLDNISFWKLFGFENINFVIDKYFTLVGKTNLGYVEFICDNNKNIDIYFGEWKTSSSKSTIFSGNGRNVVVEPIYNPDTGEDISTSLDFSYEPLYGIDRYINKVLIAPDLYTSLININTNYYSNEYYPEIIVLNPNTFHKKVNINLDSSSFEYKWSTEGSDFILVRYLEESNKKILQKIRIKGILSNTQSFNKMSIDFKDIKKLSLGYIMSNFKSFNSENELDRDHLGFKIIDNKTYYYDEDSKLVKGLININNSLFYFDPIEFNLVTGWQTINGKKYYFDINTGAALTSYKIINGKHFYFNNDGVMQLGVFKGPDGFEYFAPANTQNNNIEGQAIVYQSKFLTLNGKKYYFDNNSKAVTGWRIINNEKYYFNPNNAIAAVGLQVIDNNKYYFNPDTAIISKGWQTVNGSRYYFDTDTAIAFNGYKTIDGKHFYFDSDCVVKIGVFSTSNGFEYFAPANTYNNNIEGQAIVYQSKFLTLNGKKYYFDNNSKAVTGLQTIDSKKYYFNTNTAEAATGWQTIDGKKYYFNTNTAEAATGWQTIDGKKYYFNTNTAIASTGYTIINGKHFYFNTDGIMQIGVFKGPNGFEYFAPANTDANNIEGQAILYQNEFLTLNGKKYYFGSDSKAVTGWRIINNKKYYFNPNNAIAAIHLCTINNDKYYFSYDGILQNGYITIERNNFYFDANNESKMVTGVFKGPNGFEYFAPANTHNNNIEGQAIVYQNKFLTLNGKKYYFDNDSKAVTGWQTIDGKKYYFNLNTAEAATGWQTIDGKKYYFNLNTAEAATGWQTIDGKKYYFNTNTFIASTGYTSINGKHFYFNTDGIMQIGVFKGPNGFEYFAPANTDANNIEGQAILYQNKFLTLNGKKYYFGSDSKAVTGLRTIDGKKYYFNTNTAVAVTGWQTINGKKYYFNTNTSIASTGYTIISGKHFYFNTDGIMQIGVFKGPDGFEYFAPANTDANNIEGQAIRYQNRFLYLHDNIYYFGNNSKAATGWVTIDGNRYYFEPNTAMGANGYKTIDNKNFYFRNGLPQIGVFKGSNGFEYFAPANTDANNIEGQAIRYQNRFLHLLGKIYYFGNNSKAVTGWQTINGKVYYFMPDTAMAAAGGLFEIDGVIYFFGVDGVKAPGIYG

B1: Parent A26.8 VHH (VHH, not shown: small tags and cut ends)
VHH: QVKLEESGGGLVQAGGSLRLSCAASERTFSRYPVAWFRQAPGAEREFVAVISSTGTSTYYADSVKGRFTISRDNAKVTVYLQMNNLKREDTAVYFCAVNSQRTRLQDPNEYDYWGQGTQVTVSS
Q: With B1 as the binder, how does the Kd read?
A: Its Kd is 0.0187 µM.
